B1: TPR t1 (parent)
chain: GACCAAUCUGCCCUCAGAGCUCGAGAACAUCUUCGGAUGCAGAGGAGGCAGGCUUCGGUGGCGCGAUAGCGCCAACGUCCUCAACCUCCAAUGCAUCCCACCACAUGAUGAUGCCUGAAGAGCCUUGGUUUUUUG

Variants of: B1
Assay: polymerase ribozyme fitness, log enrichment relative to wild type (log ratio); higher = more active; in vitro selection for triplet polymerase activity
Method in brief: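 Fitness measures genotype enrichment against wild-type enrichment on a logarithmic scale, with inverse-variance-weighted averaging of replicates. The logarithm is base 2, and genotypes were kept only with ≥10 input reads and ≥1 read per output in Illumina sequencing. The sequenced libraries came from one triplicate in vitro selection round, including frozen incubation at −7 °C, of PCR-built, transcribed mutant libraries of each subunit of a heterodimeric triplet polymerase ribozyme.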

Variant | polymerase ribozyme fitness (log ratio)
C34U C85U | -4.13
C34A U59A | -2.58
U33G C34G G52U | -6.73
G35A C123A | -3.41
C34G G48A G52C A84U G120A | -6.12
U33A U112C G122C | -2.34
C34G G35U G60C G127C | -7.24
C34A G58C G63U | -4.79
C34U U109C C114A | -6.96
U33C C72U | -3.04
C34A C73G | -2.27
C34A G39U C98A | -3.78
U33A G63U | -6.72
C34G C72A | -6.05
C34A A41G A74U C88U C101U | -4.89
C34U A46U C56G C72U G120C | -5.35
G35A G48C | -4.48
C34U G52A G71U | -4.6
C34A G45C C53A G60U | -1.66
C34U G120A | -3.93
C34U G120C | -3.96
C34G C115A | -5.21
C34U G113A C124A | -5.17
G35A G58C G60U | -5.24

Variant | polymerase ribozyme fitness (log ratio)
C34A U59A C124A | -0.848
G35A C56A | -4.2
C34U C56G | -4.5
C34A A66U C101U | -5.31
G35A G113C | -5.03
C34G C72G U96C A103U C124A | -7.14
C34A G60C C97A C115G | -5.15
U33G A37U C49A C115U U131G | -6.12
C34A G47U G61A C86U U130A | -3.42
C34U G65C C70U G117C A121C | -7.03
G35A A100G | -6.42
U33A G48C G113C | -5.71
U33G G71A G117U | -8.01
U33C G61U | -3.04
U33C G61C | -5.84
G35A U129A | -5.19
C34A G61U | -3.25
C34A G61C | -4.99
G35A G77U | -3.89
G35A G61C A111C | -5.93
C34A U129C | -3.48
C34A U129G | -3.7
C34U C114G | -6.1
C34U A68G C70U | -6.49

Variant | polymerase ribozyme fitness (log ratio)
G35A C70U C79G C115A U133A | -7.56
C34A C49G C62G A121G | -5.41
C34U G45U C88A C124G | -4.4
C34A U112G U130A U133A | -3.74
C34A U59A C70U | -5.58
U33A G44A C72A U112G | -6.21
U33C G42C C99G A105G G113C U116A C123G C124A U132C | -7.71
C34A C89U U112A U133A | -1.77
C34G G61A U87A G110C | -6.72
C34A G69U G135U | -0.532
U33C G120U | -4.63
G35A G61U | -3.61
C34A G47C C82U A91G G120U | -7.66
G35A U55G | -4.9
U33C U133G | -5.56
U33G G61U | -4.97
C34G C53G C104A | -4.3
U33G C64A G71U U112A | -7.32
C34A G42C A121C | -4.79
C34U U109A U130G | -4.69
C34U U112C | -2.16
C34U U112G | -3.89
C34A A119G | -2.03
C34A C73U C82U C99A | -4.69

Variant | polymerase ribozyme fitness (log ratio)
U33A G44C G57U A121G | -4.61
G35A U78A | -4.53
U33G A118G | -5.59
C34U A90U | -4.66
C34A A50U G71C C123G | -4.86
C34A G44U G71A C114A | -6.89
C34A G63A | -4.65
C34A U87A | -3.34
C34A G47U G61A C86U | -4.04
U33G C82A | -5.59
C34A C72A C73A C97U | -3.88
G35A C85U C94A | -6.51
C34A A50U A83G | -4.58
C34G C123U | -5.16
C34G C123A | -6.76
C34G C123G | -4.46
C34U G61C C102U C124U | -4.34
C34G G44A A90G C101U A121U | -5.28
C34A G45C U59A C98G | -3.73
C34G C53A | -5.71
G35A C53G C70A C104U G117U C124G U126G | -6.92
C34G A50G C70G A74U A83C G110U U112G G120C | -6.67
C34G A95G U109G G117C | -6.44
C34U G52U | -5.84

Variant | polymerase ribozyme fitness (log ratio)
G35A U92G A121G U125A | -5.24
U33C A121C | -2.95
U33C G61A U116C C124G | -5.41
G35A C102A | -4.61
C34A C64U C94U | -3.02
C34A A83C | -3.65
G35A G60U A121U | -2.03
C34A U59C G127C | -4.66
C34A G36C G45C U112G | -5.74
C34G G36A | -6.25
C34A A37C A118G | -2.59
C34G A41C A100C A103C U112A | -6.4
U33G G63C | -5.3
C34U C70U U112A G135U | -6.08
C34U C64U C94G G113A | -7.42
C34U C102U | -2.22
C34U G65C G117C A121C | -7.56
G35A C72U A75U G77C C97U G120A U125A | -6.29
U33G G120U | -5.27
C34G C53G C72A C104A | -4.72
C34G A50G | -6.59
C34G C53U G61U C73U G113C C114G | -8.49
U33C U38G | -4.8
C34U G63U G69A A84G | -6.86

Variant | polymerase ribozyme fitness (log ratio)
G35A C56A C123G G128C | -5.64
U33G C104A A121C G135A | -5.07
C34A G71A | -3.26
C34A G71C | -4.06
C34G C49U | -6.27
C34G C73G U116A A121U | -5.9
C34G C94U | -6.86
C34U C86U | -5.16
C34A A50U G61U | -3.7
C34A C73G U106A | -4.25
C34A C56A U78C C104U | -2.07
U33C C101A A121U | -4.76
C34A G61A C94A | -3.89
C34U G71U | -3.99
C34G C64A U116C G117U | -7.25
C34U C123G | -1.94
C34A G77C U78C | -2.16
C34U G77A A103C G117U G127C U130A | -7.38
U33A G48U G69U C97G | -3.18
U33C G63U | -3.43
U33G C97A | -5.28
C34A G110U A118U | -6.14
U33G G39U A50U A84U A91C C114A | -5.3
C34A G120C | -1.97

Variant | polymerase ribozyme fitness (log ratio)
C34A G48A | -3.24
U33G G69A | -7.83
C34U G58A C99U | -4.17
G35A U130G | -5.13
C34G G63U C70U | -6.08
C34G U87G U109A | -6.29
C34A A41U G60C C99U C104A U116C U125A | -7.43
U33G C34A G48U G117C | -7.42
G35A U132A | -3.49
C34U A105G G120A | -5.77
C34A G45A C86A | -5.49
C34A A37U C82G | -4.35
C34A C73A C85U U130A | -4.99
U33G U87G | -5.18
U33G G36A A111U | -7.33
C34A A50G G93A | -3.46
C34G G61A G120A | -5.72
C34U G61U | -3.87
C34U G61C | -4.48
C34G C53G G61C U116C | -7.12
C34U U96A | -5.35
C34U U96C | -5.22
C34G A46G A91C | -8.04
